The values below come from a protein production outcome set (Wang et al. 2014).

The series is described as follows: label from the status in PepcDB records.
For “MSLSLSHFRITRFQFARDRVIGDSQVRADDVNVAALELVSESGEVGLGFIQTLFNPLPDQQEIESVFEHEVWPSLKGNRAIALVHRVNRPRGGNQRAYSLPFHEAVQVALWDLAAKEAGLPLHVLLGSRRNRVKAYASGLDFHLDDDAFVSLFSHAASIGYSAFKIKVGHRDFDRDLRRLELLKTCVPAGSKVMIDPNEAWTSKEALTKLVAIREAGHDLLWVEDPILRHDHDGLRTLRHAVTWTQINSGEYLDLQGKRLLLEAHAADILNVHGQVTDVMRIGWLAAELGIPISIGNTFLEAGVHMAVALPEVEWLEYSFQNFDHLVEQPIEIRDGYAYAPDRPGHGLVLSEKARGEWSRPRRLARSELGAAPENPRLPAKEGHHHHHH”, the protein production result was “not failed”. For “MKDILWLMQKTLSVLLKNKKGLLIIISLPIIGTLISFSIYGNAGQGALNIGVINKENESIANDTVKFLEEINHVKVSKVKESEVEDKLTSKKLDGVITLQSGFSESVREGKPSNIEISSIKGDQVTAFIKSYLYNYIDNVAAISKVAGTDQSAFDTMYAGYQKSSFKVKTETLEDTSKNKDMTNQTMGYLIMFMLFSAVNLSGYILKEKENRTYFRLLSTPIDGKKFILSNVGVNMIILTVQIMITILFLTNVFHTNINMPFIVMVGVLMIFALIAIGMSLVIVAFSKNSSSANAMQNMVIVPTCLLAGCYFPYDIMPSAVQKVANFLPQRWLLDTVSKLQQGIPFSELYLNILILFAFAIAFFLIAIYKFGRNNDARNFV” the value was “failed”; for “MERHEEIKKGAWIGILGNTVLAVLKILVGLLTGSYAILADGIDTSTDIFTSLVILLSSRISGKPPDETHPYGHERAETIASKIISFVMFYAGASLLVESVKRLVKQEFSLELTLTAFIVVGISVAGKTFLFLYKLSLGKRLKSSATISDALNMRNDIMISGTVLAGMVAMKTFGWWWLDSLLAIFVSIMILRTSFSVFYEAAYELMDGMKRTELDMYDDIFAVLERFPNVHNPHRVRIRRVGTKYFIEMDIEVDGKMSVKDAHELTVKIRKEMLKRRDDIEDVTIHVEPLGNVEEEGFGLKKGEKK”, “failed”. As for “MLHGFLRLAAGAGRSLAVPAILLALGAPAQAGSLLEDCANDKLTPPNRIVACTNVLEDKAASASDQAVAYFNRANALDRNGEFDRAIADYDKAIAFNPKDAEAFNNRGLIWGHKKDFDRALADYDKAIELNPQIAIAYANRGLIWNDIKHDYVKAIADFDKAIRLDPENNGLYNLRGNAYLRKGDYDQAITSYSQAIFLDSQDPNQYFNLGLAWTTKGNLERAIADYSQAISLDANHAEAYRWRADAWVKRGDTDQALSDYTEAIRLDPGDAETFRNRARIWERKRDYDRAIADYDQAIAFAPNDAVAYNGRGWMWSLKHETDRAIVDYVKATAFDPNYVLAYDNLGLAWWDKGDLDRAISAFDQAVIVDPKYAPAYNDRGLARMDKNQYDLAIADYNMAILIDAGFVSAYRNRGNAWNRKGQFDYAIADFDQAIDHDPDDADAYVGRGRSRIYKADYTKAIADLDQAIRIGPKSARAHDTRGLAMVYKADYAGALADYDEAIRLSPKNASAYRNRGIASFYFGPPAKAQADFEQAAAIKPGDSYHAIWLDLARRRNGQPSILVDAKLDMTRWPAAVVRLLLGQQTPEATLLAADNPDATKKSEQLCEANFYVAEFQRLQHHDEEALRLYRLALGGCPRDFIEYTAATSALRVMGKAP”, the protein production entry is reported as “failed”. Take “MSLAHPPRLNDDKPVIWTVSVTRLFELFRDISLEFDHLANITPIQLGFEKAVTYIRKKLANERCDAIIAAGSNGAYLKSRLSVPVILIKPSGYDVLQELAKAGKLTSSIGVVTYQETIPALVAFQKTFNLRLDQRSYITEEDARGQINELKANGTEAVVGAGLITDLAEEAGMTGIFIYSAATVRQAFSDALDMTRMSLRHNTHDATRNALRTRYVLEGHHHHHH”: the protein production entry is recorded as “not failed”. In the case of “MLDRLRFPHPWLSLTLFVMWQFLSDGISGGSIVLGLILAWIIPLMTQGFWPDPPTLLKAWKTPAYLLRVLWDIVVASVDVARLILSPRAPRPMFICYTLELTDPLAISILASTISLTPGTVSADVSDDNTLLLIHALDAEDEQEVIDTIRNRYEKPLLEMFQ”, the protein production result is recorded as “failed”. For “EQVFAAECILSKRLRKGKLEYLVKWRGWSSKHNSWEPEENILDPRLLLAFQKKEHEKEVQN” the value was “not failed”; for “MSERRDAILKASATAIAQRGIRGLRVNDVAEVAGVSPGLLYYHFKDRIGLLEAALNYINDRARAYRSEGEGSGDSARDRLTRSLLGEIQDRPEVVENSLAWNELRASAVYEEALRDPLARTTAAWVSEIADAIVQAQATGEISRSLDPQPTAVTMTALVEGLSGRWLCKEISTEDARSHLLGAIDVVMSEPTHHTADTPVTPTPKEYR”, “not failed”. As for “MGKRRFQKAKETSSVAEASSPTESQATRRRRGRPRKNLENPEDFKKEESEEDEDYEEYEDEEEEDEEAEVVINREKLKKKVRSSSGSMEKEQKMKHEELEEEEKPEMTVKVVVPPPSSRRSRRKSTPVKSW”, the entry is “failed”; as for “RAKAFIDAANQYSINELYLISHALLETGNGTSALANGLTYNGKTVYNMYGIGAYDSNPNYYGAKYAYEQGWFTPEAAIIGGAKFIGSSYIHNTAYNQDTLYKMRWSATATHQYATDIGWAYKQVNRMYSLYSLLDG”, “not failed”; as for “ARIARVVVHPDYRSDGLGQLSVKAALEWIAERRIPEMRKKKHFVETIAQMARYNPFFEKVGFRYVWETASG”, “failed”. Turning to “MAETSIEWTDVTWNPVAGCTVLTAGCTNCYAMRMAARLEAMGVEKYAGLTRKSGGRAKWTGRIFLDRKALSIPASWSKPRRVFVNSMSDLFHSDVPTDFISDVWKVMAQTPRHTYQILTKRPDRMVEIVPGLAKLRNVWLGTSVEDARVIYRIDKLRQVPAAVRFVSFEPLIGSVSGAGLRNIHWAIVGGESGPKARSMDPAWVDEIESMCRDQGAAFFFKQWGGKNKKAAGRTLNGRLYDEMPAPSMP”, the protein production entry is recorded as “failed”.

In the case of “MLILVILLVLVALAFDFINGFHDAANSIATVVSTRVLSPLVAVGWAAFFNFISAMPVLWGAELKVAATMGKGIVHFEQLKAGGISLVLMVVFAALMGAIVWNLLTWWWGLPSSSSHALAGGMIGASLPPLGFAGLIPSGILKIAAFIVLSPLIGMVLGSAMMVATAWVVRKNTPARVDRWFRRLQLVSAAIFSYSHGTNDAQKVMGIISVILYGTIWADRAAMTPGHFPVPFWVVLSCHAAIGLGTMFGGWRIVRTMGHNLTKLQPIGGFCAETGGGVTILALAHFGIPVSTTHTITGAIVGVGSTKGTRAVRWGVAGRIIWAWIFTIPAAAIVAGVIFLVTRAIVSVIGVG”, the protein production result is reported as “failed”.

Take “MMASYLSTPSVSYSMKSYDPVKVLYTVIISLVSLYTLYITSAFFYVLILSALFAYIIHPVYFFCIRFVKSKQICALIPLGTIFLITLASGVMIVKALMNEISRILEIPNTINGFANMDLRRIVGLFEPLIQTHPGKLTESIGAYLNSLVTDYVPQIQNNIFQISTGLSILIIELIVIVVLTYYLLVESETIATELPNLFPDRKVGVVFLGELNYIYQNLFIVYFLTCLITGIIGGVLYWALGVPYSLIWGILTFIMALLPVVGAGTVYGLLALYYVLIDDFFTAGALIFLGIVFLSIIPDFIMRPRFARNRAAIHPAITLVAFAAPVFVLGPIGIIIGPLTYGFLLAAFRTRKILGTSSAQTESSAAGSPEDLVGSQREKSDESPVGRSVERPVKASGERSRSGN”: the protein production entry was “failed”. With “MQVQHHNAHLSRSVQAQVARLVLQANLAYGESNSNGLSYIQRLKARNECREYLNQALALEADHAAALGLLGRVEMDDGQLEKAHALFNASLNRQPAQAQQYCNLGYWALKSERPALAEEYFLQALECDRQSAAAFCGVAHAKRLQGQFDVAYLHYRKLLQSGSEWDSVYSGMLSCAQHLQVHKADSDLALDAIALLRQEGLPHQEIGHFVGAIIQQQYDLDNPNAEIFLDAAAEDELLILALQKTLMPNAAVEELVVLLRRAIMAEVAQTASLRDELQPLCLAIAEYADRTGFALAAEDDEERLAATINESIMAQFAVGEPQEALIGSLMISAMYGALFHQNFAVQLGQWNLVDWPLAMQPIMAASYYNRAEEEAIKQNFDEKAEELCLEKTDVPQAWPAWSQLAYRTETSLKAVMAQELGLNTDNLPATLRIMVCGAQSGQRAMELAQYLNDVEVIAVDESLANIAKGTRMAQSLNMDNIVFWPWSIAQRFVADGHKVHWVEVGRLPSPAMTELSLAALINSASIAGAVVHMHTSMAEQTAGDKQIRRLIAEHQLQPTRTSLRQLRRMVLANKQDAVWSSLLQDDDFYSLGGCRDRWFRPQDANQLKELLALVSNEVEWKLVKARDEDGHSLATGPVQRQIQAEALGSEVQSLMGQNLSVYFQRRR”, the protein production entry is reported as “failed”.

Consider “MDFNDSAQAIILNVGGEKNINSLIHCSTRLRFTLNDFAKADLEKLKTVDGVLGAVIAGGQCQVIIGNDVVEMFDAVQALLGNSTQQNTARGPKQSWGKVVLDFIIGVFQPLVPAIAGGGILKAVLMLLAMFGWISDKSQTYQILNLVGGAPLYLLPILVAITTAQKLKVNPLVAVSTVGVLILPDLVAMLTKGTTLFGLHVTNVTYSSQVFPAILCVLFYALMERFFTKYSPKPIRIFFVPMMSMLITAPITLLFLGPLGYVVGEGFVSVILFLNTHLGWVATALLAGVLPFMVATGMHKPMIPYVVSTFSTVGKESLYLPASLAHNISESGTCFAITLRTKDTKLRAVALSAGISALFGITEPALYGVTLQHKRALISVITGGVIGGAYVGIAGLSGFTIVGPGLASLPMFVDKSNPANLIHALIGFGISFVVSFVIGLIIWKNDEEISSASDTGEATTTVVAEDLMAPVAGKILSLADVPDDVFSQGLIGQGIAVEPSEGSLIAPTDGTIEMVYETKHALGMRTDNGAELLFHIGLDTVQLNGKYFESHVQVGQHVQAGELLETFDVAKIKAAGYNPITMMVVTNQDSYTVAVDESNETLDNQSVMNIAKLGV”, for which the protein production result is recorded as “failed”. As to “MPGFTAPTRRQVLSLYKEFIKNANQFNNYNFREYFLSKTRTTFRKNMNQQDPKVLMNLFKEAKNDLGVLKRQSVISQMYTFDRLVVEPLQGRKH”, the protein production entry is reported as “failed”. For “QKVEFRKRMEKEVSDFIQDSGQIKKKFQPMNKIERSILHDVVEVAGLTSFSFGEDDDCRYVMIFKKEFAPSDEELDSYRRG”, the protein production entry was “not failed”. As for “MVSNGSIIHVNQNQFMMLVDGGKIVDYTAEPGYFKVENSASPSLFGGQFGDALKETFSRFKFGGTTPMKQEVFYVNLQEIKGIKFGTPNPLQYFDNFYNAELFLRTFGNYSIKITDPIKFFKEACPRDAENVHIDEINEQYLSEFLEALQAAISQMSMEGERISFIPSKGTVLSKHMSEILDDSWKELRGMEVLSVGIASISYDDESKELINMRNKGAMLGDPGVREGYVQGSIARGMEAAGSNQAGAGMAFMGMGMGMNAAGGFMGQASQTNMQQMQMNQAAQRAAQGAGQQQGAGAKAAGEWFCTECGHKNTGKFCAECGTPKPQGSGCPSCGAELKAGAKFCPECGTKLLEHHHHHH”, the entry is “not failed”; as for “TIPEGLRAVVFDFDGTILDTETREFHHWQELYREHGRELALSDWQRGVGTWDAFDPWAGLPEQVQADRENVRARLHDTIVSDIAGQDLRPGVRAVLEGVKAAGLRLALATSSDREWVTRWMRQHNLLDLFEAVATRDDVRRVKPDPELYLLAAARLGLRPEECLAVEDSFNGATAAVAAGMRLVVVPNDVTRTQPFPAEWRRLEDGYAGGLAGLL”, “failed”.
